Here are results for two substances from publication PMC6783550, “Molecular mechanism of azoxy bond formation for azoxymycins biosynthesis” (Nature Communications, 2019).

In one data set the test system is Nc1ccc(/C=C/C(=O)O)cc1. Nature of the data set: purified protein. The following applies: 30 °C, general assay: 1 mM NADH, 10 μM PMS, O2, 20 mM HEPES pH 7.
The target in data set [1] is AzoC (Streptomyces chattanoogensis). Kind of data set: native gel or EMSA + SEC; Native-PAGE and size-exclusion chromatography of purified recombinant AzoC; SEC on Sephacryl S-300, AKTA Purifier, 4 °C, 20 mM Tris pH 8.0, 250 mM NaCl, 1 mL/min, markers IgG (150 kDa) and BSA (67 kDa); self-association, homodimer.

In the case of AzoC (Streptomyces chattanoogensis), in the data set on Nc1ccc(/C=C/C(=O)O)cc1, the Km was found to be 4.24 ± 0.9 µM and the kcat is 0.7005 ± 0.0698 s⁻¹. Take AzoC (enzyme): in data set [1], the stoichiometry N stood at 2.
